The target of experiment [1] is T. cruzi ribosomal P0 protein (Trypanosoma cruzi, strain  in …, UniProt P26796). Briefly: cell-based or functional assay.
Experiment [2] concerns the target T1, P015 peptide (C-terminal region of T. cruzi P0) (Trypanosoma cruzi, UniProt P26796).
T1 construct: C-terminal region of the Trypanosoma cruzi ribosomal P0 protein (TcP0), called P015; aspartic acid in place of glycine 8 of R13; source: synthetic peptide
T1 chain: EEEDDDDDFGMGALF
The experiment is described as follows: SPR; competition on BIACORE 3000: TcP2β-GST immobilised by amine coupling at 0.05 pmol/mm2; scFv C5 pre-incubated 30 min with different concentrations of peptide, injected 2 min, 3 min dissociation, 30 µl/min; HBS-EP buffer pH 7.4, 150 mM NaCl; IC50 from the decrease in the initial linear kinetics. As to conditions: both partners purified.

The target of experiment [3] is T2, TcP2β-GST fusion protein (Trypanosoma cruzi ribosomal P2β protein) (Trypanosoma cruzi, strain , UniProt P26795).
T2 construct: Trypanosoma cruzi ribosomal P2β protein (TcP2β), recombinant; also called recombinant TcP2β protein
The description is as above. The settings on record: both partners purified.

Experiment [4] concerns the target T3, R13 peptide (C-terminal epitope of T. cruzi P1α, P1β, P2α and P2β) (Trypanosoma cruzi).
T3 construct: the text prints only the motif 3-EdDDmGF-9; the peptide is also in PDB 3SGE; source: synthetic peptide
T3 chain: EEEDDDMGFGLFD
The description is as above. As to conditions: both partners purified.

These results are taken from PMC3343115, “Selective Blockade of Trypanosomatid Protein Synthesis by a Recombinant Antibody Anti-Trypanosoma cruzi P2β Protein” (PLoS ONE, 2012).

The term IC50 denotes the concentration needed to halve the response being measured.

Sequence of T. cruzi ribosomal P0 protein (P26796 whole entry, looked up): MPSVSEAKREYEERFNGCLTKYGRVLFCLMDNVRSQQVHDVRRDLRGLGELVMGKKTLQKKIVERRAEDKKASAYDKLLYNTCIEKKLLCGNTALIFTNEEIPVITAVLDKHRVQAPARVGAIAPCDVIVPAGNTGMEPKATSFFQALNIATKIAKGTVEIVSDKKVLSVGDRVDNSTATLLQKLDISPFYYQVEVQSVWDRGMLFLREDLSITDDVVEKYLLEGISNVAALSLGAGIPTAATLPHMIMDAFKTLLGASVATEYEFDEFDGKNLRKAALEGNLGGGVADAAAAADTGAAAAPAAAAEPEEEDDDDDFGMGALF
T2 sequence (P26795 whole entry, the tested form may be a part): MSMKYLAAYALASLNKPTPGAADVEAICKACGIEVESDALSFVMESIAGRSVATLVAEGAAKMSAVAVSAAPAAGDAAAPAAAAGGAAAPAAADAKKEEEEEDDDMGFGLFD

B1: single chain recombinant antibody C5 (scFv C5) (scFv, V domains shown)
VH: EVQLEESGGRLVQPKGSLKLSCAASGFSFNTNAMNWVRQAPGKGLEWVARIRSKINNYSTYYADSVKDRFTISRDDSQSMLYLQMNNLKTEDTAMYYCVRGTTYWGQGTLVTVSA
VL: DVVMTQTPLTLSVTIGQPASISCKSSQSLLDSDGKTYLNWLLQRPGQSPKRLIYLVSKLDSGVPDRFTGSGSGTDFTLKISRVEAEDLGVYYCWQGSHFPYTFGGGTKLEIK
notes: VH of scFv C5, which derives from the parental monoclonal antibody 17.2; heavy chain variable domain of mAb 17.2 in PDB 3SGE (complex with R13) and 3SGD (apo); linker between the variable domains; VL of scFv C5, which derives from the parental monoclonal antibody 17.2; light chain variable domain of mAb 17.2 in PDB 3SGE (complex with R13) and 3SGD (apo); The His tag is known from detection with …
As for B1, the “inhibition of in vitro protein synthesis ([35S]-methionine incorporation) by T. cruzi ribosomes (about 130 nM), dose-response of scFv C5, IC50” value in experiment [1] is ~0.0624 µM. Besides, the 50% inhibitory concentration (IC50) in experiment [2] worked out at 22.6 ± 2.03 µM; in experiment [4], 2.37 ± 0.23 µM. Further, the binding result in experiment [3] is “binds”.
